According to paper PMC12589211, “Development of lisinopril radioconjugates for nuclear imaging of the angiotensin converting enzyme” (European Journal of Nuclear Medicine and Molecular Imaging, 2025):

Columns and labels:
in vivo = conditions: female, mouse, iv, 3 MBq; for tissue uptake at 1 h / tissue uptake at 3 h: total radioactivity
Procedure: All applicable international, national, and/or institutional guidelines for the care and use of laboratory animals were followed and the animal experiments were carried out according to the guidelines of the Swiss Regulations for Animal Welfare. Preclinical studies were ethically approved by the Cantonal Committee of Animal Experimentation and permitted by the responsible cantonal authorities (License N° 75743). Five-week-old female Crl: CD1-Foxn^nu (CD1/nude) mice were obtained from Charles River Laboratories (Sulzfeld, Germany) and fed with standard rodent chow ad libitum. The mice were subcutaneously inoculated with HEK-ACE (8 × 10^6 cells in 100 µL PBS) on the left shoulder and approximately one week later with HEK-ACE2 cells (4–6 × 10^6 cells in 100 µL PBS) on the right shoulder. Imaging and biodistribution studies were performed 2‒4 weeks later when the xenografts reached a size of 100–300 mm^3.
Mice were intravenously injected with 3 MBq [^67Ga]Ga-DOTA-LIS-02 or 3 MBq [^67Ga]Ga-NODAGA-LIS-02 (0.5 nmol, 100 µL) or 3 MBq [^44Sc]Sc-DOTA-LIS-02 (1 nmol, 100 µL) diluted in saline containing 0.05% bovine serum albumin (BSA). The mice were sacrificed 1 h and 3 h after administration of the respective radioconjugate. Selected tissues and organs were collected, weighed and counted for activity using the γ-counter. The results were listed as a percentage of the injected activity per gram of tissue mass (% IA/g), using counts of a defined volume of the original injection solution measured at the same time to calculate decay-corrected values. Statistical analysis was performed by applying a regular one-way ANOVA test with a Tukey’s multiple comparison post‐hoc test to compare the data of the radioconjugates. A p-value of < 0.05 was considered as statistically significant (GraphPad Prism software, version 8.3.1).

[1] = system: human blood plasma proteins; test: in vitro; assay type: in vitro ADME; conditions: 30 min, 0.1 µM
Procedure: (§1) The n-octanol/phosphate buffered saline (PBS) distribution coefficients (logD values) of the radioconjugates (20 MBq/nmol) were determined using the shake-flask method, as previously reported (Supplementary material). The binding affinity of the radioconjugates (20 MBq/nmol) to serum proteins was assessed using an ultrafiltration assay as previously reported (Supplementary Material). Methods: The plasma protein binding of the radioconjugates (20 MBq/nmol) was assessed using mouse blood plasma (Lot N°: 32321, Rockland Immunochemicals, Inc., USA,; concentration of mouse serum albumin (MSA): ⁓550 µM) and human blood plasma (Stiftung Blutspende SRK Aargau-Solothurn, Switzerland; concentration of human serum albumin (HSA): ⁓800 µM), respectively. After incubation in mouse and human blood plasma (0.3 MBq in 150 μL) for 30 min at 37 °C, the samples were cooled on ice and diluted with ice-cold PBS (150 μL). The plasma protein-bound fraction was separated from the free (plasma protein-unbound) fraction of each sample by means of Amicon centrifugal filters (Amicon Ultra, 0.5 mL, Merck Millipore; cutoff 10 kDa) by ultrafiltration using a centrifuge (14000 rcf, 30 min at 4 °C). Afterwards, the filter inserts were inverted and centrifuged again (200 rcf) for 3 min to recover the protein-bound fraction of the radioconjugates. The activities of the free radioconjugates in the filtrate, as well as in the filter insert and the plasma protein-bound radioconjugate (bound), were counted for activity separately using a γ-counter (Wallac Wizard 1480, PerkinElmer). The total activity (total) was determined as the sum of the activities in the filtrate, filter insert, and protein-bound fractions. The percentage of radioconjugate bound to MSA and HSA was calculated as Abound/Atotal*100. The results were presented as average ± SD of 3 independent experiments.

[2] = system: mouse blood plasma proteins; test: in vitro; assay type: in vitro ADME; conditions: 30 min, 0.1 µM
Procedure: as §1

physchem = assay type: physicochemical; conditions: pH 7.4, logD value (n-octanol/PBS distribution coefficient)
Procedure: The n-octanol/phosphate buffered saline (PBS) distribution coefficients (logD values) of the radioconjugates (20 MBq/nmol) were determined using the shake-flask method, as previously reported (Supplementary material). The binding affinity of the radioconjugates (20 MBq/nmol) to serum proteins was assessed using an ultrafiltration assay as previously reported (Supplementary Material). Methods: A fixed amount of the respective radioconjugate (0.5 MBq, 25 µL) was added to radio-immunoassay (RIA) tubes containing a mixture of PBS pH 7.4 (1475 µL) and n-octanol (1500 µL). After vortexing vigorously for 1 min, the tubes were centrifuged (560 rcf) for 6 min to obtain phase separation. The activity in the organic and aqueous phases was determined using a γ-counter (Wallac Wizard 1480, PerkinElmer). The distribution coefficients were expressed as the logarithm of the ratio of counts per minute (cpm) measured in the n-octanol phase to the cpm measured in the PBS pH 7.4 phase and indicated as the average of three independent measurements ± SD, each performed with five replicates.

in vitro = in vitro ADME; conditions: plasma
Procedure: as §1

[3] = CD1/nude (Crl:CD1-Foxn nu), 1 h
[4] = CD1/nude (Crl:CD1-Foxn nu), 3 h
[5] = Crl:CD1-Foxn^nu (CD1/nude), 1 h
[6] = Crl:CD1-Foxn^nu (CD1/nude), 3 h
[7] = human, Fraction bound to human blood plasma proteins
[8] = mouse, Fraction bound to mouse blood plasma proteins
[9] = CD1/nude (Crl:CD1-Foxn nu), Biodistribution, Bone
[10] = CD1/nude (Crl:CD1-Foxn nu), Biodistribution, HEK-ACE xgft
[11] = CD1/nude (Crl:CD1-Foxn nu), Biodistribution, Muscle
[12] = CD1/nude (Crl:CD1-Foxn nu), Biodistribution, Salivary glands
[13] = CD1/nude (Crl:CD1-Foxn nu), Biodistribution, Stomach
[14] = Crl:CD1-Foxn^nu (CD1/nude), Biodistribution, Blood
[15] = Crl:CD1-Foxn^nu (CD1/nude), Biodistribution, Heart
[16] = Crl:CD1-Foxn^nu (CD1/nude), Biodistribution, Kidneys
[17] = Crl:CD1-Foxn^nu (CD1/nude), Biodistribution, Lung
[18] = Crl:CD1-Foxn^nu (CD1/nude), Biodistribution, Spleen
[19] = CD1/nude (Crl:CD1-Foxn nu), Biodistribution, Intestines
[20] = CD1/nude (Crl:CD1-Foxn nu), Biodistribution, Liver

## O=C(O)CN1CCN(CC(=O)O)CCN(CC(=O)NCCCC[C@H](NC(=O)CCCCCCCNC(=O)NCCCC[C@H](N[C@@H](CCc2ccccc2)C(=O)O)C(=O)N2CCC[C@H]2C(=O)O)C(=O)O)CCN(CC(=O)O)CC1 [[^44Sc]Sc-DOTA-LIS-02] [metal not drawn]
In vivo; [3]
  Biodistribution, Blood: 0.24 ± 0.03 %IA/g
  Biodistribution, Bone: 0.17 ± 0.02 %IA/g
  Biodistribution, Intestines: 0.16 ± 0.02 %IA/g
  Biodistribution, Liver: 0.14 ± 0.01 %IA/g
  Biodistribution, Muscle: 0.16 ± 0.02 %IA/g
  Biodistribution, Salivary glands: 0.19 ± 0.02 %IA/g
  Biodistribution, Stomach: 0.22 ± 0.15 %IA/g
In vivo; [4]
  Biodistribution, Bone: 0.07 ± 0.03 %IA/g
  Biodistribution, Intestines: 0.05 ± 0.01 %IA/g
  Biodistribution, Liver: 0.09 ± 0.01 %IA/g
  Biodistribution, Muscle: 0.07 ± 0.04 %IA/g
  Biodistribution, Salivary glands: 0.09 ± 0.05 %IA/g
  Biodistribution, Stomach: <0.05 %IA/g
In vivo; [5]
  Biodistribution, Heart: 0.18 ± 0.03 %IA/g
  Biodistribution, Kidneys: 6.1 ± 0.8 %IA/g
  Biodistribution, Lung: 2.0 ± 0.6 %IA/g
  Biodistribution, Spleen: 0.14 ± 0.05 %IA/g
In vivo; [6]
  Biodistribution, Blood: <0.05 %IA/g
  Biodistribution, Heart: <0.05 %IA/g
  Biodistribution, Kidneys: 0.75 ± 0.07 %IA/g
  Biodistribution, Lung: 0.13 ± 0.02 %IA/g
  Biodistribution, Spleen: 0.06 ± 0.01 %IA/g
[1]
  Fraction bound to human blood plasma proteins: 49 ± 2%
[2]
  Fraction bound to mouse blood plasma proteins: 42 ± 4%

## O=C(O)CN1CCN(CC(=O)O)CCN(CC(=O)NCCCC[C@H](NC(=O)CCCCCNC(=O)NCCCC[C@H](N[C@@H](CCc2ccccc2)C(=O)O)C(=O)N2CCC[C@H]2C(=O)O)C(=O)O)CCN(CC(=O)O)CC1 [[^67Ga]Ga-DOTA-LIS-01, metal not drawn]
physchem
  logD: -5.47 ± 0.17
In vitro; [7]
  fraction unbound at 30 min, 0.1 µM: 0.55
In vitro; [8]
  fraction unbound at 30 min, 0.1 µM: 0.54

## O=C(O)CN1CCN(CC(=O)O)CCN(CC(=O)NCCCC[C@H](NC(=O)CCCCCCCNC(=O)NCCCC[C@H](N[C@@H](CCc2ccccc2)C(=O)O)C(=O)N2CCC[C@H]2C(=O)O)C(=O)O)CCN(CC(=O)O)CC1 [[^67Ga]Ga-DOTA-LIS-02, metal not drawn]
In vivo; CD1/nude (Crl:CD1-Foxn nu)
  tissue uptake at 1 h: 0.24 ± 0.01 %ID/g
  tissue uptake at 3 h: 0.08 ± 0.03 %ID/g
In vivo; [9]
  tissue uptake at 1 h: 0.14 ± 0.01 %ID/g
  tissue uptake at 3 h: < 0.05 %ID/g
In vivo; [10]
  tissue uptake at 1 h: 14 ± 3 %ID/g
  tissue uptake at 3 h: 16 ± 1 %ID/g
In vivo; [11]
  tissue uptake at 1 h: 0.1 ± 0.03 %ID/g
  tissue uptake at 3 h: < 0.05 %ID/g
In vivo; [12]
  tissue uptake at 1 h: 0.18 ± 0.04 %ID/g
  tissue uptake at 3 h: < 0.05 %ID/g
In vivo; [13]
  tissue uptake at 1 h: 0.16 ± 0.05 %ID/g
In vivo; [14]
  tissue uptake at 3 h: < 0.05 %ID/g
In vivo; [15]
  tissue uptake at 1 h: 0.2 ± 0.06 %ID/g
  tissue uptake at 3 h: < 0.05 %ID/g
In vivo; [16]
  tissue uptake at 1 h: 6.3 ± 1 %ID/g
  tissue uptake at 3 h: 1.1 ± 0.2 %ID/g
In vivo; [17]
  tissue uptake at 1 h: 2.4 ± 0.7 %ID/g
  tissue uptake at 3 h: 0.21 ± 0.05 %ID/g
In vivo; [18]
  tissue uptake at 3 h: 0.05 ± 0.01 %ID/g
In vitro; [7]
  fraction unbound at 30 min, 0.1 µM: 0.5 ± 0.01
In vitro; [8]
  fraction unbound at 30 min, 0.1 µM: 0.54

## O=C(O)CN1CCN(CC(=O)O)CCN(CC(=O)NCCCC[C@H](NC(=O)CCCCCCCNC(=O)NCCCC[C@H](N[C@@H](CCc2ccccc2)C(=O)O)C(=O)N2CCC[C@H]2C(=O)O)C(=O)O)CCN(CC(=O)O)CC1 [[^67Ga]Ga-DOTA-LIS-02] [metal not drawn]
In vivo; [4]
  Biodistribution, Intestines: 0.22 ± 0.90 %IA/g
  Biodistribution, Liver: 0.76 ± 0.13 %IA/g
In vivo; [5]
  Biodistribution, Spleen: 0.51 ± 0.65 %IA/g

## O=C(O)CN1CCN(CC(=O)O)CCN(C(CCC(=O)NCCCC[C@H](NC(=O)CCCCCCCNC(=O)NCCCC[C@H](N[C@@H](CCc2ccccc2)C(=O)O)C(=O)N2CCC[C@H]2C(=O)O)C(=O)O)C(=O)O)CC1 (stereo partly shown) [[^67Ga]Ga-NODAGA-LIS-02, metal not drawn]
physchem
  logD: -5.04 ± 0.09
In vivo; CD1/nude (Crl:CD1-Foxn nu)
  tissue uptake at 1 h: 0.08 ± 0.01 %ID/g
  tissue uptake at 3 h: < 0.05 %ID/g
In vivo; [9]
  tissue uptake at 1 h: < 0.05 %ID/g
  tissue uptake at 3 h: < 0.05 %ID/g
In vivo; [10]
  tissue uptake at 1 h: 3.6 ± 0.9 %ID/g
  tissue uptake at 3 h: 5.2 ± 0.5 %ID/g
In vivo; [19]
  tissue uptake at 1 h: 23 ± 6 %ID/g
  tissue uptake at 3 h: 2.3 ± 1 %ID/g
In vivo; [20]
  tissue uptake at 1 h: 18 ± 1 %ID/g
  tissue uptake at 3 h: 9.6 ± 1.2 %ID/g
In vivo; [11]
  tissue uptake at 1 h: 0.11 ± 0.12 %ID/g
  tissue uptake at 3 h: < 0.05 %ID/g
In vivo; [12]
  tissue uptake at 1 h: < 0.05 %ID/g
  tissue uptake at 3 h: < 0.05 %ID/g
In vivo; [13]
  tissue uptake at 1 h: 0.31 ± 0.18 %ID/g
  tissue uptake at 3 h: 0.15 ± 0.1 %ID/g
In vivo; [14]
  tissue uptake at 3 h: < 0.05 %ID/g
In vivo; [15]
  tissue uptake at 1 h: < 0.05 %ID/g
  tissue uptake at 3 h: < 0.05 %ID/g
In vivo; [16]
  tissue uptake at 1 h: 1.7 ± 0.6 %ID/g
  tissue uptake at 3 h: 0.49 ± 0.13 %ID/g
In vivo; [17]
  tissue uptake at 1 h: 0.63 ± 0.06 %ID/g
  tissue uptake at 3 h: 0.11 ± 0.04 %ID/g
In vivo; [18]
  tissue uptake at 1 h: < 0.05 %ID/g
  tissue uptake at 3 h: < 0.05 %ID/g
In vitro; [7]
  fraction unbound at 30 min, 0.1 µM: 0.46
In vitro; [8]
  fraction unbound at 30 min, 0.1 µM: 0.51
